Patent US5677146

How the values were obtained:
[1] = target: Leukocyte Elastase, purified at Novo Nordisk A/S using the method of Baugh and Travis
[2] = target: human Factor XIa (1 nM) (human) (UniProt P03951)
[3] = target: Trypsin (8 nM), Novo Nordisk A/S, Bagsvaerd, Denmark
[4] = target: recombinant human Factor VIIa (300 nM), Novo Nordisk A/S (human) (UniProt P08709)
[5] = target: Urokinase (5 nM), Serono, Freigung, Germany
[6] = target: human Factor XIIa (30 nM) (human) (UniProt P00748)
[7] = target: human Factor Xa (3 nM) (human) (UniProt P00742)
[8] = target: recombinant human activated protein C (5 nM), Novo Nordisk A/S (human) (UniProt P04070)
[9] = target: T1, Cathepsin G, purified at Novo Nordisk A/S using the method of Baugh and Travis
T1 sequence (P08311 21-244, species assumed, looked up): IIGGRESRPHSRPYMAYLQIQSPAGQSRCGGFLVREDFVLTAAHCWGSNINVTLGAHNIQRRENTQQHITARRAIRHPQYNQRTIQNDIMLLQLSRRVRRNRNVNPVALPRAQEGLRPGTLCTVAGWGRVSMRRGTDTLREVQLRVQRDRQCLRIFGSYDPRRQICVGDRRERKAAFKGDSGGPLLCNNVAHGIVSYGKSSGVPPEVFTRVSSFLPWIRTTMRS

[10] = target: plasma kallikrein (3 nM), Kabi
[11] = target: Chymotrypsin (2.5 nM), Novo Nordisk A/S
[12] = target: glandular kallikrein (1 U/ml), Sigma, St Louis, MO

% Inhibition [1]: 4%
% Inhibition [2]: 99.8%
% Inhibition (Plasmin (10 nM), Kabi): 77%
% Inhibition [3]: 99.6%
% Inhibition [4]: 15%
% Inhibition [5]: 2%
% Inhibition [6]: 6%
% Inhibition [7]: 0%
% Inhibition [8]: 0%
% Inhibition [9]: 0%
% Inhibition [10]: 69%
% Inhibition [11]: 61%
% Inhibition [12]: 97%
Substance: APPH Kunitz-type inhibitor domain as tested in Table 3
